Here are results for two compounds from patent US20180221513A1, “CONTRAST-AGENT-LABELED PEPTIDE AMPHIPHILE NANOFIBERS” (Northwestern University, priority 2015, published 2018).

peptoid linker = not defined here

A short description of series [1]: ICP-MS of leg muscles for Gd(III) retention after day 4. Particulars: after four days; intramuscular PA gel 1 wt %, 10 mol % Gd(III)-PA. The class given is in vivo, mice. On the procedure:
To measure degradation in vivo, six wild-type mice received approximately 4 μL injections of PA gels at 1 wt % loaded with 10 mol % Gd(III)-PA relative to C16V3A3E3-NH2. The injections were applied with a modified syringe pump designed to inject while withdrawing the needle to produce a gelled track of PA in situ. Injection volume varied because track length varied slightly with mouse size and small variations in each injection geometry. The tract geometry was chosen to give accurate T1 determinations because imaging slice thickness could be greater without volume averaging effects. A total of five legs were injected with PA1, four legs with PA3, and three with 100% C16V3A3E3-NH2 as a control. Mice were imaged at day 0 immediately after injections and again at day 4. The Gd(III)-PA was clearly visible in all cases (FIG. 5). […]
For Gd(III) analysis, mouse leg muscles were excised and digested in 1 mL of nitric acid per gram of tissue in Teflon tubes. […] Digest was diluted and measured using the same conditions as above.
All measurements used a Thermo X series II ICP-MS (Thermo Fisher Scientific, Waltham, Mass., USA) operating with an ESI SC-2 autosampler (Omaha, Nebr., USA). […] The two most common isotopes of Gd, 157Gd and 158Gd, were measured. 115In and 165Ho were measured as internal standards.

A short description of series [2]: 1H NMRD profiles, fits with modified Florence approach. Particulars: fits at 37° C. The class given is physicochemical. On the procedure:
^1NMRD profiles were collected with a Stelar Spinmaster FFC-2000-1T fast field cycling relaxometer in the 0.01-40 MHz proton Larmor frequency range, at 293 and 310 K. Longitudinal relaxation rates were measured with an error smaller than 1%. Proton relaxivities were calculated by subtracting the diamagnetic contribution of the peptide nanofibers in the absence of Gd(III) from the relaxation rates of the paramagnetic samples, and normalizing to 1 mM Gd(III) concentration. The profiles were analyzed using the Freed model for outer-sphere relaxation (refs. 48, 49; incorporated by reference in their entireties) and the modified Florence NMRD program for the inner-sphere relaxation (refs. 45, 46, 50; incorporated by reference in their entireties). The effect of static ZFS on nuclear relaxation is considered along with transient ZFS, where modulation is responsible for electron relaxation, provided molecular reorientation time is much longer than electron relaxation time (refs 51,52; incorporated by reference in their entireties). In order to establish which parameter was dominant in relaxivity changes, NMRD profiles of each PA were measured. NMRD profiles for all four PAs at 25° and 37° C. are shown in FIG. 3 with parameter fits obtained using the “modified Florence” approach (refs. 44-46;1 incorporated by reference in their entireties). In the fits, a Lipari-Szabo order parameter S^2 was included to consider the effect of local motions which may superimpose to the global motion of the nanostructures. A smaller S^2 value indicates a less restricted local mobility (e.g., a more flexible linkage between fiber and macrocycle). […] The NMRD fits show τm is primarily responsible for the variation in relaxivity observed upon annealing and Ca2+ cross-linking (Table 2). It is contemplated that annealing and calcium addition change macrocycle presentation on the fiber surface, extending them from the structure with increased peptide packing density and facilitating faster water exchange. […] The ^1H NMRD profiles were analyzed assuming one water molecule regularly coordinated to the Gd(III) ion in the presence of freely diffusing outer-sphere water. The contribution of the coordinated water protons […]) to the relaxation of bulk water protons (R1) largely depends on the τM of coordinated water if τ[…], as expected for Gd(HP-DO3A), according to the following relationship: R1=fM(1/[…]+τM)^-1+Ros where f^M is the mole fraction of ligand nuclei in bound positions and Ros is the outer-sphere contribution. […] is calculated by considering the simultaneous presence of both static (D) and transient (Δt) ZFS, as needed for Gd(III) complexes, through the “modified Florence” NMRD program, 4-6 assuming slow rotation, i.e. the molecular tumbling time τR is much longer than the electron relaxation time Tle. The PA fiber's micron-scale size assures that TR could be fixed to a large, constant value (≥100 ns) in the calculation of the relaxation profile. The ^1H NMRD profiles of PA 1 were repeated at both temperatures using the same Δt value of 0.0142 cm-1, D=0.046 cm-1, θ=42° (angle between the z-axis of the ZFS tensor and the metal-water direction) and a correlation time for electron relaxation τV=24 ps. A distance of closest approach of diffusing water molecules (d) of 7-10 Angstroms should be set, i.e. somewhat larger than usually found in isolated Gd(III) chelates (3.5-4 Å). […]

Series [3] is described as follows: T1 and T2 relaxivity (r1, r2) at 1.41 T, Bruker Minispect relaxometer. The class given is physicochemical. Conditions: 1.41 tesla. As for the experimental part:
Using a Bruker Minispect relaxometer operating at 1.41 T, T1 and T2 relaxivity values (r1 and r2) were determined for each agent (Table 1). […] Thermal annealing followed by addition of CaCl2 caused complex changes in the observed agent relaxivity (Table 1). […] This increased accessibility is consistent with a more extended molecular structure as indicated by SAXS.
All concentrations used in relaxivity determination were obtained using ICP-MS. Samples were digested using ACS reagent grade nitric acid (70%) for a least 2 hours at 70° C. Samples were diluted in filtered, deionized water. A standard containing the elements Bi, Ho, In, Li, Sc, Tb, and Y was added to a final concentration of 5 ng/mL (Inorganic Ventures, Christiansburg, Va., USA). Final nitric acid concentration was 3%. The instrument was calibrated using a serial dilution of Gd(III) standards (Inorganic Ventures, Christiansburg, Va., USA) with nitric acid and internal standard concentrations identical to the samples. Calibration was conducted with 1.000, 5.000, 10.00, 20.00, 50.00, 100.0, and 200.0 ng/mL Gd(III) standards.
T1 Measurements were performed at 1.41 T with a Bruker Minispect mq60 magnet, using an inversion recovery sequence. T2 measurements were acquired using a Carr-Purcell-Meiboom-Gill (CPMG) pulse sequence. PAs were weighed out and dissolved in Millipore water to form 1 mg/mL solutions, and then these solutions were serial diluted to 0.5, 0.25, 0.125, 0.05, and 0.01 mg/mL concentrations. For each concentration, T1 and T2 were measured. These solution concentrations were then measured using ICP-MS for relaxivity determination. Samples were lyophilized and resuspended in 50 mM Tris and 150 mM NaCl buffer. These were then adjusted using small volumes of 0.1 M NaOH to reach pH 7.4. T1 and ICP-MS measurements were then taken of these solutions. The relaxometer tubes were heated at 80° C. for 30 min in a water bath. The bath was allowed to come to room temperature over several hours. T1 times were measured. Finally, 100 μL of 20 mM CaCl2 solution was added to each tube. The tubes were vortex-mixed and allowed to stand for 20 minutes. ICP-MS and T1 measurements were conducted once more.

The mark [4] stands for this setting: Addition of CaCl2 to annealed solution.

For the compound `CCCCCCCCCCCCCCCC(=O)N[C@H](C(=O)N[C@H](C(=O)N[C@H](C(=O)N[C@@H](C)C(=O)N[C@@H](C)C(=O)N[C@@H](C)C(=O)N[C@@H](CCC(=O)O)C(=O)N[C@@H](CCC(=O)O)C(=O)N[C@@H](CCC(=O)O)C(=O)NCC(=O)N(CC(=O)N(CC(=O)N(CC(N)=O)Cc1cn(CC(O)CN2CCN(CC(=O)O)CCN(CC(=O)O)CCN(CC(=O)O)CC2)nn1)Cc1cn(CC(O)CN2CCN(CC(=O)O)CCN(CC(=O)O)CCN(CC(=O)O)CC2)nn1)Cc1cn(CC(O)CN2CCN(CC(=O)O)CCN(CC(=O)O)CCN(CC(=O)O)CC2)nn1)C(C)C)C(C)C)C(C)C` (some centres unmarked) (Gd complex, metal not drawn) [PA3], the “Gd(III) retention: remained in the mouse leg (ICP-MS)” value in series [1] was 54±9%.
As to “C16-VVVAAAEEE-(peptoid linker)-(Gd(HP-DO3A) macrocycle) (C16-VVVAAAEEE-{peptoid linker-Gd(HP-DO3A)}; reading uncertain; also: Gd(III) chelated in HP-DO3A macrocycle) [PA2, V3A3E3 peptide amphiphile, Gd(III) contrast agent conjugated at the C-terminus without a glycine linker]”, the results for the “τm (water exchange lifetime), best-fit value” in series [2] (Annealed), in series [2] (Buffered) and in series [2] (Ca^2+) were 540 ns, 640 ns and 410 ns, respectively. Further, the “S^2 (Lipari-Szabo order parameter), best-fit value” in series [2] is listed as 0.3. Moreover, in series [2], the “τlocal, best-fit value” worked out at 4 ns. The “r1 (T1 relaxivity)” value in series [3] (setting [4]) is 21.7 ± 0.1 mM⁻¹ s⁻¹; in series [3] (After Thermal Annealing) it was 16.9 ± 0.2 mM⁻¹ s⁻¹; in series [3] (H2O), 17.3 ± 0.8 mM⁻¹ s⁻¹; in series [3] (Tris Buffer (pH 7.4)), 16.7 ± 0.2 mM⁻¹ s⁻¹. Also, the “r2 (T2 relaxivity)” value in series [3] (setting [4]) came to 45 ± 2 mM⁻¹ s⁻¹; in series [3] (After Thermal Annealing) it was 28.6 ± 0.6 mM⁻¹ s⁻¹; in series [3] (H2O), 39 ± 2 mM⁻¹ s⁻¹; in series [3] (Tris Buffer (pH 7.4)) it was 32.2 ± 0.5 mM⁻¹ s⁻¹.
